Measurements reported in paper PMC5537068, “Endoglucanase activity at a second site in Pyrococcus furiosus triosephosphate isomerase—Promiscuity or compensation for a metabolic handicap?” (FEBS Open Bio, 2017).

Legend:
[1] = biological target: the molecule itself; assay: SEC; gel filtration chromatography in phosphate buffer
[2] = biological target: the molecule itself; assay: AUC; sedimentation velocity, phosphate buffer; data not shown; told in one sentence together with SDS/PAGE and gel filtration
[3] = biological target: the molecule itself; assay: native gel or EMSA; native PAGE at 5, 7.5, 10, 12.5 and 15% acrylamide with HMW markers, Ferguson plot of molecular weight
[4] = biological target: the molecule itself; assay: SDS/PAGE (zymogram); 12% SDS/PAGE under standard conditions, gel copolymerised with CM-cellulose; residual oligomers resist SDS and boiling; bands identified as PfuTIM by in-gel digestion and MALDI-TOF MS
[5] = biological target: the molecule itself; assay: AUC; sedimentation velocity, Tris buffer; data not shown; told in one sentence together with SDS/PAGE and gel filtration

B1: Pyrococcus furiosus triosephosphate isomerase (PfuTIM) (enzyme, UniProt P62002 1-228, looked up)
chain: MAKLKEPIIAINFKTYIEATGKRALEIAKAAEKVYKETGVTIVVAPQLVDLRMIAESVEIPVFAQHIDPIKPGSHTGHVLPEAVKEAGAVGTLLNHSENRMILADLEAAIRRAEEVGLMTMVCSNNPAVSAAVAALNPDYVAVEPPELIGTGIPVSKAKPEVITNTVELVKKVNPEVKVLCGAGISTGEDVKKAIELGTVGVLLASGVTKAKDPEKAIWDLVSGIIKE
notes: also called TPI; source: E. coli M15[pREP4], purified (Ni-NTA, gel filtration)
For B1, the “stoichiometry N” value [1] was 6, the “stoichiometry N” value [2] was 3 and the “stoichiometry N” value [3] was 8. The “stoichiometry N” value [4] was 2 and the “stoichiometry N” value [5] was 4.
